Data from article PMC11385703 (Structure(London, England:1993), 2024).

Assays:
Settings in all cases: both partners purified
biotinylated myotoxin II = biotinylated myotoxin II (Bothrops asper, UniProt P24605, biotin (EZ-Link NHS-PEG4-Biotin, 1:1.25 toxin:reagent molar ratio)); experiment: BLI
myotoxin II = target: T1, myotoxin II (Bothrops asper, UniProt P24605); experiment: […] (1:20) in PBS pH 7.4 and pH 6, 1 h at room temperature
T1 construct: source: purified from the venom of B. asper (CM-Sephadex C25, RP-HPLC)
T1 sequence (P24605 17-137): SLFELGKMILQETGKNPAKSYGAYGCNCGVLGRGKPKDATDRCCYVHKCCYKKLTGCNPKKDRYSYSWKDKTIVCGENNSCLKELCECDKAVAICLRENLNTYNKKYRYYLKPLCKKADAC

[1] = target: T2, α-cobratoxin, biotinylated (Naja kaouthia, UniProt P01391, biotin (EZ-Link NHS-PEG4-Biotin, 1:1.25 toxin:biotinylation reagent molar ratio)); experiment: BLI; […]) biosensors; […]; dissociation for 600 s in HEPES-MES pH 5.0; 25°C; 1:1 binding model, […]
T2 sequence (P01391 whole entry): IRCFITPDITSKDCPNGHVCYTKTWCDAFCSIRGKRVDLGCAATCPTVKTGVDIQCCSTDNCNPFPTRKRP

[2] = target: T2, α-cobratoxin, biotinylated; experiment: BLI; […]) biosensors; […]; dissociation for 600 s in HEPES-MES pH 6.5; 25°C; 1:1 binding model, […]
[3] = target: T2, α-cobratoxin, biotinylated; experiment: BLI; […]) biosensors; […]; dissociation for 600 s in HEPES-MES pH 4.5; 25°C; 1:1 binding model, […]
[4] = target: T2, α-cobratoxin, biotinylated; experiment: BLI; […]) biosensors; […]; dissociation for 600 s in HEPES-MES pH 5.5; 25°C; 1:1 binding model, […]
[5] = target: T2, α-cobratoxin, biotinylated; experiment: BLI; […]) biosensors; […]; dissociation for 600 s in HEPES-MES pH 7.4; 25°C; 1:1 binding model, […]
[6] = target: T2, α-cobratoxin, biotinylated; experiment: BLI; […]) biosensors; […]; dissociation for 600 s in HEPES-MES pH 6.0; 25°C; 1:1 binding model, […]
[7] = target: T2, α-cobratoxin, biotinylated; experiment: BLI; […]) biosensors; […]; dissociation for 600 s in HEPES-MES pH 4.0; 25°C; 1:1 binding model, […]
[8] = target: T2, α-cobratoxin, biotinylated; experiment: BLI; […]) biosensors; […]; dissociation for 600 s in HEPES-MES pH 3.5; 25°C; 1:1 binding model, […]
[9] = target: T2, α-cobratoxin, biotinylated; experiment: BLI; […]) biosensors; […]; association in HEPES-MES pH 7.4 for 300 s, dissociation in HEPES-MES pH 5.5 for 600 s; 1:1 binding model, […]
[10] = target: T3, biotinylated α-cobratoxin (Naja kaouthia, UniProt P01391); experiment: BLI
T3 construct: source: bought: Latoxan, then biotinylated
T3 sequence (P01391 whole entry): as above

α-cobratoxin = target: T4, α-cobratoxin (Naja kaouthia, UniProt P01391); experiment: SPR; […] (Biacore 8K, 25°C); […]; dissociation 300 s in running buffer of pH 7.4 or 5.5
T4 construct: source: bought: Latoxan

[11] = target: T2, α-cobratoxin, biotinylated; experiment: BLI; […]) biosensors; […]; association in HEPES-MES pH 7.4 for 300 s, dissociation in HEPES-MES pH 7.4 for 600 s; 1:1 binding model, […]

Chain of biotinylated myotoxin II (P24605 17-137): as the sequence (P24605 17-137) above

B1: IgG: TPL0039_05_E02-YTE (antibody, V domains shown)
VH: QVQLLESGGGLVQPGRSLRLSCAASGFTFSSYGLHWVRQAPGKGLEWVAVISYDGSNKYYADSVKGRFTISRDNSKNTLYLQMNSLRAEDTAVYYCASTLQQLDAFDIWGQGTLVTVSS
VL: NFMLTQPHSVSESPGKTVTISCTRSSGSIASNYVQWYQQRPGTSPTIMIYEDNQRPSGVPDRFSGAIDSSSNSASLTISGLKTEDEADYYCQSYDSSSVVFGGGTKVTVL
notes: copies: 2 + 2
Biotinylated myotoxin II
  Kd: < 0.001 nM
  koff: < 1e-07 s⁻¹

B2: IgG: TPL0039_05_B12-YTE (antibody, V domains shown)
VH: EVQLVESGGGVVQPGRSLRLSCAASGFTFSSYGMHWVRQAPGKGLEWVAVISYDGSNKYYADSVKGRFTISRDNSKNTLYLQMNSLRAEDTAVYYCAGWTEGDAFDIWGQGTLVTVSS
VL: NFMLTQPHSVSESPGKTVTISCTRSSGSIASNYVQWYQQRPGSAPSTVIYEDNRRPSGVPDRFSGSIDSASNSASLTISGLKTEDEADYYCQSYDSSSVVFGGGTKITVL
notes: copies: 2 + 2
Biotinylated myotoxin II
  Kd: < 0.001 nM

B3: IgG: TPL0039_05_B04-YTE (antibody, V domains shown)
VH: EVQLLESGGGVVQPGRSLRLSCAASGFTFSSYGMHWVRQAPGKGLEWVAVISYDGSNKYYADSVKGRFTISRDNSKNTLYLQMNSLRAEDTAVYYCARVGENEAFDIWGQGTMVTVSS
VL: NFMLTQPHSVSESPGKTVTISCTRSSGSIARNYVQWYQQRPGSAPTTVIYEDNQRPSGVPDRFSGSIDSSSNSASLTISGLKTEDEADYYCQSYDSSTVVFGGGTKLTVL
notes: also called IgG1 B04-YTE; source: CHO cells, transiently expressed, purified; copies: 2 + 2
Myotoxin II
  stoichiometry N: 2 antigen per IgG1

B4: 2554_01_D11 Fab (Fab, V domains shown)
VH: QVQLVQSGAEVKKPGSSVKVSCKASGGTFSSYAISWVRQAPGQGLEWMGGIIPIFGTANYAQKFQGRVTITADESTSTAYMELRSLRSDDTAVYYCARDNLGYCSGGSCYSDYYYYYMDVWGQGTLVTVSS
VL: NFMLTQPRSVSESPGKTVTISCTRSSGSIGSDYVHWYQQRPGSSPTTVIYEDNQRPSGVPDRFSGSIDSSSNSASLTISGLKTEDEADYYCQSYDRSNHEVVFGGGTKLTVL
[1]
  koff: 0.00043 s⁻¹
[2]
  koff: 0.00027 s⁻¹
[3]
  koff: 0.00065 s⁻¹
[4]
  koff: 0.00039 s⁻¹
[5]
  koff: 0.00026 s⁻¹
[6]
  koff: 0.0003 s⁻¹
[7]
  koff: 0.001 s⁻¹
[8]
  koff: 0.0036 s⁻¹
[9]
  Kd: 8.7 nM
  koff: 0.0004 s⁻¹
  kon: 46000 M⁻¹ s⁻¹

B5: Fab: 2554_01_D11 (Fab, V domains shown)
VH: QVQLVQSGAEVKKPGSSVKVSCKASGGTFSSYAISWVRQAPGQGLEWMGGIIPIFGTANYAQKFQGRVTITADESTSTAYMELRSLRSDDTAVYYCARDNLGYCSGGSCYSDYYYYYMDVWGQGTLVTVSS
VL: NFMLTQPRSVSESPGKTVTISCTRSSGSIGSDYVHWYQQRPGSSPTTVIYEDNQRPSGVPDRFSGSIDSSSNSASLTISGLKTEDEADYYCQSYDRSNHEVVFGGGTKLTVL
notes: also called Fab D11; source: purified
[10]
  binding result: binds

B6: IgG: 2555_01_A01-YTE (antibody, V domains shown)
VH: QVQLVQSGAEVKKPGSSVKVSCKASGGTFSSYAISWVRQAPGQGLEWMGGIIPIFGTANYAQKFQGRVTITADESTSTAYMELRSLRSDDTAVYYCARDNLGYCSGGSCYSDYYYYYMDVWGQGTLVTVSS
VL: SYELTQPPSVSVAPGRTATITCEGDNIGQQIVHWYQQKPGQAPVAVISSDSDRPSGIPERFSGSNSGNTATLTISRVEAGDEADYYCQVWDSGSDHVVFGGGTKVTVL
notes: also called IgG1 A01; source: CHO cells, transiently expressed, purified; copies: 2 + 2
α-cobratoxin
  binding result: binds

B7: Fab: 2555_01_A01 (Fab, V domains shown)
VH: QVQLVQSGAEVKKPGSSVKVSCKASGGTFSSYAISWVRQAPGQGLEWMGGIIPIFGTANYAQKFQGRVTITADESTSTAYMELRSLRSDDTAVYYCARDNLGYCSGGSCYSDYYYYYMDVWGQGTLVTVSS
VL: SYELTQPPSVSVAPGRTATITCEGDNIGQQIVHWYQQKPGQAPVAVISSDSDRPSGIPERFSGSNSGNTATLTISRVEAGDEADYYCQVWDSGSDHVVFGGGTKVTVL
notes: also called Fab A01; source: purified
[10]
  binding result: binds

B8: TPL0197_01_C08 Fab (Fab, V domains shown)
VH: EVQLVQSGAEVKKPGASVKVSCKASGYTFTSYGISWVRQAPGQGLEWMGWISAYNGNTNYAQKLQGRVTMTTDTSTSTAYMELRSLRSDDTAVYYCAREEYCSSTSCYVGNYYGMDVWGQGTLVTVSS
VL: DIQMTQSPSSLSASVGDRVTITCQASQDISNYLNWYQQKPGKAPKLLIYAASSLESGVPSRFSGSGSGTEFTLTITNLQVDDFATYYCQRYDSNFAFGQGTKVEIK
[1]
  koff: 0.0073 s⁻¹
[2]
  koff: 0.00077 s⁻¹
[3]
  koff: 0.054 s⁻¹
[4]
  koff: 0.0041 s⁻¹
[5]
  koff: 0.00069 s⁻¹
[6]
  koff: 0.0015 s⁻¹
[7]
  koff: 0.28 s⁻¹
[8]
  koff: 1.2 s⁻¹
[11]
  Kd: 64 nM
  koff: 0.00085 s⁻¹
  kon: 11000 M⁻¹ s⁻¹
[9]
  koff: 0.0058 s⁻¹
  kon: 3800 M⁻¹ s⁻¹

B9: IgG: TPL0197_01_C08-YTE (antibody, V domains shown)
VH: EVQLVQSGAEVKKPGASVKVSCKASGYTFTSYGISWVRQAPGQGLEWMGWISAYNGNTNYAQKLQGRVTMTTDTSTSTAYMELRSLRSDDTAVYYCAREEYCSSTSCYVGNYYGMDVWGQGTLVTVSS
VL: DIQMTQSPSSLSASVGDRVTITCQASQDISNYLNWYQQKPGKAPKLLIYAASSLESGVPSRFSGSGSGTEFTLTITNLQVDDFATYYCQRYDSNFAFGQGTKVEIK
notes: also called IgG1 C08; source: CHO cells, transiently expressed, purified; copies: 2 + 2
α-cobratoxin
  binding result: binds
